Source: paper PMC3089569 (The Journal of Biological Chemistry, 2011)

Molecular target: N-terminal histidine-tagged full-length mouse eIF4AI (mouse, UniProt P60843 1-406)
Assay: SPR

Sequence of N-terminal histidine-tagged full-length mouse eIF4AI (P60843 whole entry): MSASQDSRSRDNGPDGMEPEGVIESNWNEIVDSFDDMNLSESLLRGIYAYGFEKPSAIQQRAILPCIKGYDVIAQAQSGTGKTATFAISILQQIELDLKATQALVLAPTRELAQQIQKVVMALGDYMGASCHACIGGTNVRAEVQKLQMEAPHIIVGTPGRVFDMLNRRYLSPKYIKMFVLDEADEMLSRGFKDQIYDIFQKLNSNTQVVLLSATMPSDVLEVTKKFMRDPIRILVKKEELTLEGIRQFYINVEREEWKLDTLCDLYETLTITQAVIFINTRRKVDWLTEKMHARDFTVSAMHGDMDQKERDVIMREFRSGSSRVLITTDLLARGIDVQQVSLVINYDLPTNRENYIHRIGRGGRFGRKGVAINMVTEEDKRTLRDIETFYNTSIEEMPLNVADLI

Kd: 167 nM
B1: GST-MA-3M-C fusion protein (tandem MA-3 region of mouse Pdcd4, residues 157-449) (domain or fragment, UniProt Q61823 157-449, looked up)
chain: LPLDETAFEKTLTPIIQEYFEHGDTNEVAEMLRDLNLGEMKSGVPVLAVSLALEGKASHREMTSKLLSDLCGTVMSTNDVEKSFDKLLKDLPELALDTPRAPQLVGQFIARAVGDGILCNTYIDSYKGTVDCVQARAALDKATVLLSMSKGGKRKDSVWGSGGGQQPVNHLVKEIDMLLKEYLLSGDISEAEHCLKELEVPHFHHELVYEAIVMVLESTGESAFKMILDLLKSLWKSSTITIDQMKRGYERIYNEIPDINLDVPHSYSVLERFVEECFQAGIISKQLRDLCPS
